Laboratory results published in article PMC8759039, “EjRAV1/2 Delay Flowering Through Transcriptional Repression of EjFTs and EjSOC1s in Loquat”.

What was measured:
EjRAV1 [1] = molecular target: T1, EjRAV1 (Eriobotrya japonica, UniProt A0A482LZ61 1-403); assay: EMSA; Beyotime EMSA/Gel Shift kit, chemiluminescent biotin detection; buffer, salt, pH and temperature not stated; settings: protein: recombinant; tags: 6xHis (pET28a); label: biotin (ends); blunt
EjRAV2 = EjRAV2 (Eriobotrya japonica, UniProt A0A482LTM5 1-406); assay: as above; settings: protein: recombinant; tags: 6xHis (pET28a); label: biotin (ends); blunt
EjRAV1 [2] = molecular target: T1, EjRAV1; assay: competition; excess unlabeled vs biotin P1; Beyotime EMSA/Gel Shift kit, chemiluminescent biotin detection; buffer, salt, pH and temperature not stated; settings: protein: recombinant; tags: 6xHis (pET28a); blunt

T1 sequence (A0A482LZ61 entry or part of it): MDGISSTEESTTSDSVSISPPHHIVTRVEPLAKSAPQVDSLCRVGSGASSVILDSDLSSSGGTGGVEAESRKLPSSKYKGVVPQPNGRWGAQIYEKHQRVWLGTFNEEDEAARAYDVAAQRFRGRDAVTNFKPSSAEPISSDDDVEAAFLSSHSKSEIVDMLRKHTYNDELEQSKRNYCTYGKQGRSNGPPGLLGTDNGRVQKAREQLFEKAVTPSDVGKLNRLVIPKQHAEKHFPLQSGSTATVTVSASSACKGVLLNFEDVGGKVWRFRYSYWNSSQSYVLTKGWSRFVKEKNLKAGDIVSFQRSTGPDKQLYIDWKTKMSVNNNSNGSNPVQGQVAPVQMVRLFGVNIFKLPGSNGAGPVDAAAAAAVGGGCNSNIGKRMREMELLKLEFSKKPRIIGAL
EjRAV2, sequence (A0A482LTM5 entry or part of it): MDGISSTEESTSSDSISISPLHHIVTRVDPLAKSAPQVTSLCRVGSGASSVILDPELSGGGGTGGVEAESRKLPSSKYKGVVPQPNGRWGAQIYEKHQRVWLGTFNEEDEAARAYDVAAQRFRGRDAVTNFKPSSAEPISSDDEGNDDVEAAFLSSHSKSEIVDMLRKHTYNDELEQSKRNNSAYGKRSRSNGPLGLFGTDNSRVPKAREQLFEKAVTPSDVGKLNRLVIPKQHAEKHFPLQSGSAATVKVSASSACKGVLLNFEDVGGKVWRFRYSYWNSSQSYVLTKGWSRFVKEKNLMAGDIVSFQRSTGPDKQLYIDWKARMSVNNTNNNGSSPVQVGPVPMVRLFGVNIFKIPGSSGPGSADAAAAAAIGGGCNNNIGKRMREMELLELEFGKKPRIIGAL

| Binder | binding result (EjRAV1 [1]) | binding result (EjRAV2) | binding result (EjRAV1 [2]) |
| --- | --- | --- | --- |
| EjFT1-P1 (dsDNA) DNA 1: TGGCAATATGACATGCAATGCAACAGAATATAAATAGTTGATTTTG DNA 2: CAAAATCAACTATTTATATTCTGTTGCATTGCATGTCATATTGCCA | binds | no binding |  |
| EjFT1-P1 unlabeled (dsDNA) DNA 1: TGGCAATATGACATGCAATGCAACAGAATATAAATAGTTGATTTTG DNA 2: CAAAATCAACTATTTATATTCTGTTGCATTGCATGTCATATTGCCA |  |  | binds |
